In PMC9482650, “Quantitative fragmentomics allow affinity mapping of interactomes” (Nature Communications, 2022):
Substitutions are numbered along the chain they refer to.

T1: PDZD7_3, Q9H5P4
T1 sequence (Q9H5P4 857-944, limits assumed, looked up): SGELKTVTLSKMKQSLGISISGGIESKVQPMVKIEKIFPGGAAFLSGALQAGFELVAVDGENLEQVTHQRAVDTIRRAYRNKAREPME

T2: MPDZ_12, O75970
T2 sequence (O75970 1857-1958, limits assumed, looked up): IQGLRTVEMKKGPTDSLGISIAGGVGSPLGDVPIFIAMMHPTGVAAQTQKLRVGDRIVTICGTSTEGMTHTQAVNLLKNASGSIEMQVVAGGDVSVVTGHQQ

T3: APBA1_2, Q02410
T3 sequence (Q02410 742-832, limits assumed, looked up): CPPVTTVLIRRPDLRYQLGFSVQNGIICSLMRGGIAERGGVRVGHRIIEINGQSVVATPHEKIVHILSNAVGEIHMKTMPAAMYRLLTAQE

T4: PCLO, Q9Y6V0
T4 sequence (Q9Y6V0 4491-4600, limits assumed, looked up): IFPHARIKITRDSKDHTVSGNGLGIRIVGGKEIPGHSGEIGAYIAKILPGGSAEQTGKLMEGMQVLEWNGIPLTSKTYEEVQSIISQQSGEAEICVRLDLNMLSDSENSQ

T5: APBA2_2, Q99767
T5 sequence (Q99767 654-744, limits assumed, looked up): T3 sequence (Q02410 742-832, limits assumed, looked up) with R10K, R15K, P59A, H65Q, I66A, A70S, Y84F, A89G

T6: MPDZ_10, O75970
T6 sequence (O75970 1624-1722, limits assumed, looked up): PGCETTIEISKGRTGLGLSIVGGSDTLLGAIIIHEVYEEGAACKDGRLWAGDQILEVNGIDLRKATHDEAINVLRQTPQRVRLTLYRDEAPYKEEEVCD

T7: GRIP1_5, Q9Y3R0
T7 sequence (Q9Y3R0 568-668, limits assumed, looked up): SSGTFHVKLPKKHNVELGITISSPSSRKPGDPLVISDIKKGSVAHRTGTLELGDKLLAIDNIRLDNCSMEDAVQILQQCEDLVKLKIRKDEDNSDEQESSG

T8: GRIP1_4, Q9Y3R0
T8 sequence (Q9Y3R0 467-571, limits assumed, looked up): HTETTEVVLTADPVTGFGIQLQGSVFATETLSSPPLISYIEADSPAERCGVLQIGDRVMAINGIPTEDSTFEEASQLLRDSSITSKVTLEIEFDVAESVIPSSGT

T9: DLG3_3, Q92796
T9 sequence (Q92796 374-475, limits assumed, looked up): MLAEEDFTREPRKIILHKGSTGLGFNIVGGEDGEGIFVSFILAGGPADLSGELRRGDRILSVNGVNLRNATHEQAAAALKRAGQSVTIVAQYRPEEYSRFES

T10: DVL3, Q92997
T10 sequence (Q92997 244-331, limits assumed, looked up): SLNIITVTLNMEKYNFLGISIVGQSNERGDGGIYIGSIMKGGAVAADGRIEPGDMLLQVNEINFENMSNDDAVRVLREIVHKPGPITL

T11: PARD3B_1, Q8TEW8
T11 sequence (Q8TEW8 196-299, limits assumed, looked up): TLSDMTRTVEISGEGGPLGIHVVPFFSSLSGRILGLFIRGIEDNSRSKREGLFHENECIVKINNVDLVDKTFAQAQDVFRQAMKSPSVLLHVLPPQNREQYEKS


How the values were obtained:
Test in all cases: holdup assay
Set-up in all cases: key: below the threshold = too weak to quantify, mostly under pKd 3.1 to 4
Conditions in all cases: plain residues with an end cap or a label only (N-terminal biotin on a linker: ttds)
IL16_3, Q14005 = biological target: IL16_3, Q14005
Inadl_1, Q8NI35 = biological target: Inadl_1, Q8NI35
LIMK2, P53671 = biological target: LIMK2, P53671
PDZD7_3, Q9H5P4 = biological target: T1, PDZD7_3, Q9H5P4
Inadl_2, Q8NI35 = biological target: Inadl_2, Q8NI35
LAP2, Q96RT1 = biological target: LAP2, Q96RT1
DLG2_3, Q15700 = biological target: DLG2_3, Q15700
MAST1, Q9Y2H9 = biological target: MAST1, Q9Y2H9
MPDZ_12, O75970 = biological target: T2, MPDZ_12, O75970
GRASP, Q7Z6J2 = biological target: GRASP, Q7Z6J2
FRMPD3, Q5JV73 = biological target: FRMPD3, Q5JV73
APBA1_2, Q02410 = biological target: T3, APBA1_2, Q02410
GORASP1, Q9BQQ3 = biological target: GORASP1, Q9BQQ3
NHERF2_2, Q15599 = biological target: NHERF2_2, Q15599
PCLO, Q9Y6V0 = biological target: T4, PCLO, Q9Y6V0
APBA2_2, Q99767 = biological target: T5, APBA2_2, Q99767
ARHGEF12, Q9NZN5-2 = biological target: ARHGEF12, Q9NZN5-2
MAGI2_2, Q86UL8 = biological target: MAGI2_2, Q86UL8
NOS1, P29475 = biological target: NOS1, P29475
MPDZ_10, O75970 = biological target: T6, MPDZ_10, O75970
GRIP1_5, Q9Y3R0 = biological target: T7, GRIP1_5, Q9Y3R0
NHERF4_4, Q86UT5 = biological target: NHERF4_4, Q86UT5
GRIP1_4, Q9Y3R0 = biological target: T8, GRIP1_4, Q9Y3R0
DLG3_3, Q92796 = biological target: T9, DLG3_3, Q92796
DVL3, Q92997 = biological target: T10, DVL3, Q92997
PARD3B_1, Q8TEW8 = biological target: T11, PARD3B_1, Q8TEW8
MAGI2_5, Q86UL8 = biological target: MAGI2_5, Q86UL8
Chain of MAGI2_5, Q86UL8 (Q86UL8 915-1017): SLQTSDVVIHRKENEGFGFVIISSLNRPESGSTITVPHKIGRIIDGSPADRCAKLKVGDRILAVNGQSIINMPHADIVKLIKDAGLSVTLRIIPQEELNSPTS

Chain of IL16_3, Q14005 (Q14005 1107-1207): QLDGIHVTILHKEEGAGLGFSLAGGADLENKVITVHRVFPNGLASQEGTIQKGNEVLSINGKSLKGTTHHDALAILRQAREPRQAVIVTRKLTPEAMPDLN
Chain of GORASP1, Q9BQQ3 (Q9BQQ3 1-208): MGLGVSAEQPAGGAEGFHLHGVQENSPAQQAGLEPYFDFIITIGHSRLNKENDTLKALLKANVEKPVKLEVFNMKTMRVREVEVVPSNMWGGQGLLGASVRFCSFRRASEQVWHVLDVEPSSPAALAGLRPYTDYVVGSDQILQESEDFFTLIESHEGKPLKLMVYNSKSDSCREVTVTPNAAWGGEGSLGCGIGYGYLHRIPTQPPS
Chain of FRMPD3, Q5JV73 (Q5JV73 12-100): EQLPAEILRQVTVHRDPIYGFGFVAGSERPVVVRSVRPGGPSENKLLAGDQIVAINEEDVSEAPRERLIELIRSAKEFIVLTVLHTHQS
Chain of NHERF2_2, Q15599 (Q15599 142-238): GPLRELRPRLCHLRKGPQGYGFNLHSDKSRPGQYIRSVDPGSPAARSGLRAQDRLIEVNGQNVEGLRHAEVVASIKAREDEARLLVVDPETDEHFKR
Chain of MAST1, Q9Y2H9 (Q9Y2H9 962-1065): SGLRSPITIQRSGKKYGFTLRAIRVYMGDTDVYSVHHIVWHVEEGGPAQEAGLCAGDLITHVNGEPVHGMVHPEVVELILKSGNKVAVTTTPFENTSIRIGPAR
Chain of NHERF4_4, Q86UT5 (Q86UT5 464-550): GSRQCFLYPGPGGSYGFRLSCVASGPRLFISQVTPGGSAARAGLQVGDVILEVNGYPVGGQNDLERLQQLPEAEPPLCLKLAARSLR
Chain of GRASP, Q7Z6J2 (Q7Z6J2 96-193): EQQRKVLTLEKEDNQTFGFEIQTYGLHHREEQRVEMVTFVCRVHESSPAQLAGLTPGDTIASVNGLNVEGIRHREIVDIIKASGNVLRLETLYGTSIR
Chain of LAP2, Q96RT1 (Q96RT1 other isoform, or with tags, fused parts or gaps): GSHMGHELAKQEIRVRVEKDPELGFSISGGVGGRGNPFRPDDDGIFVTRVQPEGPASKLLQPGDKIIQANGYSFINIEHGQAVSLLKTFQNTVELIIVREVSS
Chain of NOS1, P29475 (P29475 9-101): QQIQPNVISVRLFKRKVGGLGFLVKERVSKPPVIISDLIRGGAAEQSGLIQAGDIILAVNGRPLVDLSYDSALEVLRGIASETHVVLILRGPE
Chain of MAGI2_2, Q86UL8 (Q86UL8 410-522): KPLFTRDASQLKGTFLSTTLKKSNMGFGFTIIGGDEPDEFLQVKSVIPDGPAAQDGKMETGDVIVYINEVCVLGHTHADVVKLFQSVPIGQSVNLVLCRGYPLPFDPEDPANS
Chain of Inadl_2, Q8NI35 (Q8NI35 238-335): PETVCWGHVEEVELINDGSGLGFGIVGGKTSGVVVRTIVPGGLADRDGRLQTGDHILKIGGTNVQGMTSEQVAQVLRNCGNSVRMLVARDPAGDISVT
Chain of ARHGEF12, Q9NZN5-2 (Q9NZN5 other isoform, or with tags, fused parts or gaps): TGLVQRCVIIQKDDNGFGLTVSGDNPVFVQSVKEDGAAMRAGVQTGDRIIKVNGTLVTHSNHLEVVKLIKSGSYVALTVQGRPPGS
Chain of LIMK2, P53671 (P53671 143-248): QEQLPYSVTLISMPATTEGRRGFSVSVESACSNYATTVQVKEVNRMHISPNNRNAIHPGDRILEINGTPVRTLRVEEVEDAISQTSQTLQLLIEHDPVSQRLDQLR
Chain of Inadl_1, Q8NI35 (Q8NI35 113-229): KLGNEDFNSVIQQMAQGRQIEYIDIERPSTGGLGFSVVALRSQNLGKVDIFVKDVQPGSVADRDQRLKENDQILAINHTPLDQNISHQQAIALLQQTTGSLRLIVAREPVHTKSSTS

Binder	pKd (IL16_3, Q14005)	pKd (Inadl_1, Q8NI35)	pKd (LIMK2, P53671)	pKd (PDZD7_3, Q9H5P4)	pKd (Inadl_2, Q8NI35)	pKd (LAP2, Q96RT1)	pKd (DLG2_3, Q15700)	pKd (MAST1, Q9Y2H9)	pKd (MPDZ_12, O75970)	pKd (GRASP, Q7Z6J2)	pKd (FRMPD3, Q5JV73)	pKd (APBA1_2, Q02410)	pKd (GORASP1, Q9BQQ3)	pKd (NHERF2_2, Q15599)	pKd (PCLO, Q9Y6V0)	pKd (APBA2_2, Q99767)	pKd (ARHGEF12, Q9NZN5-2)	pKd (MAGI2_2, Q86UL8)	pKd (NOS1, P29475)	pKd (MPDZ_10, O75970)	also measured
SSRTRRETQL [HPV16-E6, P03126]	below the threshold	below the threshold	below the threshold	4.68	below the threshold	below the threshold	5.1	4.23	below the threshold	below the threshold	below the threshold	below the threshold	3.52	4.19	below the threshold	below the threshold	4.92	4.87	4.08	3.68	pKd (GRIP1_5, Q9Y3R0): below the threshold; pKd (NHERF4_4, Q86UT5): 3.61; pKd (GRIP1_4, Q9Y3R0): below the threshold; pKd (DLG3_3, Q92796): 4.88; pKd (DVL3, Q92997): below the threshold; pKd (PARD3B_1, Q8TEW8): below the threshold; pKd (MAGI2_5, Q86UL8): 3.93
TVASEKESVM [SLC1A5, Q15758]	below the threshold	3.64	below the threshold	3.71	below the threshold	below the threshold	below the threshold	4.2	below the threshold	below the threshold	below the threshold	below the threshold	below the threshold	3.51	below the threshold	below the threshold	3.65	below the threshold	below the threshold	below the threshold	pKd (GRIP1_5, Q9Y3R0): 3.55; pKd (NHERF4_4, Q86UT5): below the threshold; pKd (GRIP1_4, Q9Y3R0): below the threshold; pKd (DLG3_3, Q92796): 3.66; pKd (DVL3, Q92997): below the threshold; pKd (PARD3B_1, Q8TEW8): 3.61; pKd (MAGI2_5, Q86UL8): below the threshold
PKTPPTDTSV [KIR3DL3, Q8N743]	below the threshold	3.57	below the threshold	3.61	below the threshold	below the threshold	3.77	below the threshold	below the threshold	below the threshold	below the threshold	3.74	below the threshold	below the threshold	below the threshold	below the threshold	below the threshold	below the threshold	below the threshold	below the threshold	pKd (GRIP1_5, Q9Y3R0): below the threshold; pKd (NHERF4_4, Q86UT5): below the threshold; pKd (GRIP1_4, Q9Y3R0): below the threshold; pKd (DLG3_3, Q92796): below the threshold; pKd (DVL3, Q92997): below the threshold; pKd (PARD3B_1, Q8TEW8): below the threshold; pKd (MAGI2_5, Q86UL8): below the threshold
